From patent US6753151B1, “Interactions of Ku polypeptides and applications thereof” (Kudos Pharmaceuticals Limited, priority 1999, dated 2004)
Where no end group is shown, it is not given here. The star is where a group is joined. Biotin = O=C1N[C@H]2[C@H](CS[C@H]2CCCCC(=O)*)N1

Legend:
[1] = biological target: T1, DNA-PKcs (Homo sapiens, UniProt P78527); experiment: Peptide interaction assay with crude HeLa cell nuclear extract; format: binding; parameters: incubated with ˜100 μg (10 μl) of HeLa Cell nuclear extract (NE); host or cells: HeLa cell nuclear extract
T1 sequence (P78527 whole entry): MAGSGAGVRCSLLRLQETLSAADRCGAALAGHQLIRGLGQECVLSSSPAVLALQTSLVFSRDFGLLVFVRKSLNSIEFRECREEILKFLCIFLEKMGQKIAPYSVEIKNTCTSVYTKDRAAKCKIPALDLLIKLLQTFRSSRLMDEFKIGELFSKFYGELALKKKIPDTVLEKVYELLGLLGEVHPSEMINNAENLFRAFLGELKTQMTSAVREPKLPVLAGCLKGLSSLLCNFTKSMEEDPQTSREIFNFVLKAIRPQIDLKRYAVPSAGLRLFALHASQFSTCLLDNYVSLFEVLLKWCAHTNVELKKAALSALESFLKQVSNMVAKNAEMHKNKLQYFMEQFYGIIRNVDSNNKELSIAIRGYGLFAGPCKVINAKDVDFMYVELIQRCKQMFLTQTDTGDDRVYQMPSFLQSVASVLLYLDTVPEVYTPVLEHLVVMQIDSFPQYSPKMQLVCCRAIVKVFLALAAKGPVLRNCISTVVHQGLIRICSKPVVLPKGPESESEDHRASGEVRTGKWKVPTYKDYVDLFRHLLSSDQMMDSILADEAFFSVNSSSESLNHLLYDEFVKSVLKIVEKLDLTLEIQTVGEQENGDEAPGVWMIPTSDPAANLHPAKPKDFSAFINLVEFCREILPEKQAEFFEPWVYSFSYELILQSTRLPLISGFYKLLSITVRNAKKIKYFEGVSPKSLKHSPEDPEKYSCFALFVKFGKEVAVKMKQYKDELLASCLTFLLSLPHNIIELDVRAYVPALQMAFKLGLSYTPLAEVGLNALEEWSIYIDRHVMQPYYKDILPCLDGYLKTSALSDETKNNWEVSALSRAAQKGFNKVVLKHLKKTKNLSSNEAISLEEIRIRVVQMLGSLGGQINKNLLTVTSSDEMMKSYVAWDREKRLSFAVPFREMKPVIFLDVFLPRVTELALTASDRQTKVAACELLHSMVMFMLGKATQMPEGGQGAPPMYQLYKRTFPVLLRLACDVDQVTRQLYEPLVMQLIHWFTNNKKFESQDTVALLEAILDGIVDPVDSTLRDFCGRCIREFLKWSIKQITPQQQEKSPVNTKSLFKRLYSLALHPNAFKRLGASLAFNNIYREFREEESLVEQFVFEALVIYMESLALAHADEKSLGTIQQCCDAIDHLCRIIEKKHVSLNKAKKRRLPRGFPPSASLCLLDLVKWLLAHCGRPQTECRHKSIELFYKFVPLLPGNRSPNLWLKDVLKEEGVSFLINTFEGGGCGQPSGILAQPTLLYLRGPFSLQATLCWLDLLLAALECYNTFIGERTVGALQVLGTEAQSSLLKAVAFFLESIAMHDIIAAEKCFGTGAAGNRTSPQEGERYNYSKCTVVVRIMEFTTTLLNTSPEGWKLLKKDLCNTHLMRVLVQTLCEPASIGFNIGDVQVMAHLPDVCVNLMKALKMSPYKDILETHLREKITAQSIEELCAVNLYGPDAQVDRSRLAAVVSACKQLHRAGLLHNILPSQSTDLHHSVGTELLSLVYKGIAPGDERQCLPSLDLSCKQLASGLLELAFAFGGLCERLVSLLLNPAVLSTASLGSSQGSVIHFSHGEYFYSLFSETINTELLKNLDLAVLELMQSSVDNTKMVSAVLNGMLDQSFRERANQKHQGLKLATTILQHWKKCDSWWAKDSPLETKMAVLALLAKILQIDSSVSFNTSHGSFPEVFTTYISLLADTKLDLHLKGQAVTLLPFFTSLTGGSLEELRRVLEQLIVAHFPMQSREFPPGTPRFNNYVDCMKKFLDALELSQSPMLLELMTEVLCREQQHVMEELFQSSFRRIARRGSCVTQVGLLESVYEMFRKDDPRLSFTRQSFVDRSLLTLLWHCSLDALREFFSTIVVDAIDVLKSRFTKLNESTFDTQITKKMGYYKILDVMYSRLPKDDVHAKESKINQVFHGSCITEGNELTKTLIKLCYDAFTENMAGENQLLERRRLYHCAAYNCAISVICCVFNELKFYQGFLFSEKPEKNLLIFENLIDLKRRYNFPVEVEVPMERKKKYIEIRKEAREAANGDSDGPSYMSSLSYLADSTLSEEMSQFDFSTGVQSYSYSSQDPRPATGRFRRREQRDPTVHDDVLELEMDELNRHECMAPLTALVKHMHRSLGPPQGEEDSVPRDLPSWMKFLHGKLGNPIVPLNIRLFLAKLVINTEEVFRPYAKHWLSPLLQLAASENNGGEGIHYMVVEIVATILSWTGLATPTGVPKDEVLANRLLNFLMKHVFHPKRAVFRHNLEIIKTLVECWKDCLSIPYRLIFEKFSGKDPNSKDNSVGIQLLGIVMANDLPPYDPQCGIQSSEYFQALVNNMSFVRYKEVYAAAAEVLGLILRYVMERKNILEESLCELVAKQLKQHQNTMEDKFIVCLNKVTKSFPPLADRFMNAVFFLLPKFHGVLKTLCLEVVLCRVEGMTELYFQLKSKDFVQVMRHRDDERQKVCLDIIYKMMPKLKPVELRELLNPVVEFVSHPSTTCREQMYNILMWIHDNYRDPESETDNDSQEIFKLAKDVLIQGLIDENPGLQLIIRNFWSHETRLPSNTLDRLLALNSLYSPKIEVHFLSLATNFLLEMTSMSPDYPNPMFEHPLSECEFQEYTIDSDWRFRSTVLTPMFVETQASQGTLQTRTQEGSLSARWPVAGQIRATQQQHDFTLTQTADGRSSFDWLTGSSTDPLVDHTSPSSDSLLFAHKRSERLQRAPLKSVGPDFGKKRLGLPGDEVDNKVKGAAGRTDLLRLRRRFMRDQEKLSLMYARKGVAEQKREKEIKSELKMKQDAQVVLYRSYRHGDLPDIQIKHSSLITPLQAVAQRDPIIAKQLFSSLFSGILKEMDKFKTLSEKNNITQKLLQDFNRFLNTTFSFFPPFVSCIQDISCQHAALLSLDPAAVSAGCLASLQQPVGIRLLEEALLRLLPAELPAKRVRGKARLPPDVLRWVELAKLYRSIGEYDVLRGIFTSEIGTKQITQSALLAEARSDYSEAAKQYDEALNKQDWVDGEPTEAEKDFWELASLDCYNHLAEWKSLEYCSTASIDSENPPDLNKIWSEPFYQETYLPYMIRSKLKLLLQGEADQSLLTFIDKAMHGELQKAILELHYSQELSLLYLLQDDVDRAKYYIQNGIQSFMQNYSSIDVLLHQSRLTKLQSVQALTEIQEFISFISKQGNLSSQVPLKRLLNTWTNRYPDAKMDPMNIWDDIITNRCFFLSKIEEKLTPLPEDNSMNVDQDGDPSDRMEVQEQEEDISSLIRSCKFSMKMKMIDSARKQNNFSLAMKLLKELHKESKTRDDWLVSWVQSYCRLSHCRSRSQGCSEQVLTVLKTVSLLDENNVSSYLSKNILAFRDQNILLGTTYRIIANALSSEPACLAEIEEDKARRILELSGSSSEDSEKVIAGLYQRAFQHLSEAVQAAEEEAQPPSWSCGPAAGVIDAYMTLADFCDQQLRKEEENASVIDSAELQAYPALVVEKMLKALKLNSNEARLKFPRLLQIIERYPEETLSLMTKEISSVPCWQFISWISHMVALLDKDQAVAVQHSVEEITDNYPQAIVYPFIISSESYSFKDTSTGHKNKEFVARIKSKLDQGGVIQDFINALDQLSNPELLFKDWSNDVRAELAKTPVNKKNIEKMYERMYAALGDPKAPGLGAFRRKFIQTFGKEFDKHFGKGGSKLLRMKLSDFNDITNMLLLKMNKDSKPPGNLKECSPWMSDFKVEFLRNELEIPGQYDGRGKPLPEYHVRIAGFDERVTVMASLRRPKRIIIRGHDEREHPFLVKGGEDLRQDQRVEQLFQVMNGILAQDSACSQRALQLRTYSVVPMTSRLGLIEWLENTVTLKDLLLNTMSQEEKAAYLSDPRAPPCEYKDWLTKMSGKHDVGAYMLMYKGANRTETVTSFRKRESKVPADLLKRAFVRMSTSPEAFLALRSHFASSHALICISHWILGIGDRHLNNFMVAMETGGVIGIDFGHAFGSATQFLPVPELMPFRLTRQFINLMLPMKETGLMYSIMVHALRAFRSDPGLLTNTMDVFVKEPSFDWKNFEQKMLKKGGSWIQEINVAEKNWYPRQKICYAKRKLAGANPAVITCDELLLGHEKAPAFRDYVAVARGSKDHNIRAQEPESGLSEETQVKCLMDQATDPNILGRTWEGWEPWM
Experimental: (§1) 5 Peptides with the sequence Ser-Gly-Ser-Gly (SEQ ID NO:10) as a linker to 12 amino acid residues (SEQ ID NOS:1 and 12-15) derived from the sequence of Ku80 (see FIG. 5) were generated with a biotin moiety at the N-terminus (Khiron Technologies). Each peptide (2×10^11 moles) was incubated with either 400 ng (˜10^12 moles) of purified DNA-PKcs or 100 μg of crude HeLa NE in 100 μl (final) volume of Z′ buffer (see above for buffer composition). Binding reactions were incubated for 2.75 hours at 4° C., then a 100 μl suspension of para-magnetic beads, containing 1:5 dilution of Dynabeads (Dynal) in Z′ buffer, was added for a final 0.25 hour incubation. Dynabeads are conjugated with Streptavidin. The bead-protein complexes were be retrieved from the solution using a magnet and washed 5 times with 0.5 ml of Buffer X (see above for buffer composition). Proteins retained on the beads were eluted in SDS gel-loading buffer and subjected to polyacrylamide gel eletrophoresis and silver staining.
The ability of each of the five peptides to retrieve proteins from a crude unfractionated HeLa cell nuclear extract was determined. […] Any proteins remaing bound to the peptide/beads was eluted in SDS-PAGE buffer, resolved on a 6% polyacrylamide gel and detected with silver-staining. […]

[2] = biological target: T1, DNA-PKcs; experiment: Peptide interaction assay with purified DNA-PKcs; format: binding; parameters: The starting material for purification of DNA-PKcs was HeLa NE; host or cells: HeLa nuclear extract; purified in house over Q Sepharose, heparin agarose, phenyl Sepharose and Mono-S; details: 50 mM and 100 mM KCl; streptavidin paramagnetic beads; silver-staining
Experimental: as §1, with “Proteins retained on the beads were eluted in SDS gel-loading buffer and subjected to polyacrylamide gel eletrophoresis and silver staining.” left out
The inventors synthesised a series of peptides (Peptides A-E, SEQ ID NOS:1 and 12-15) derived in sequence from the extreme C-terminus of Ku80 (residues 609 to 733, SEQ ID NO:11: see FIG. 5 and Materials and Methods). […] The beads were recovered using a magnet, washed extensively in buffer containing the same concentration of KCl as the incubation buffer X (25 mM HEPES pH 7.5, 50 mM/100 mM KCl, 2 mM MgCl2, 0.4% NP-40), and the bound protein eluted in SDS-PAGE sample buffer, resolved on a 6% polyacrylamide gel and detected using silver-staining.

[3] = biological target: T2, DNA-dependent protein kinase catalytic subunit (DNA-PKcs), human, from HeLa cell nuclear extract (human, UniProt P78527 1-4128); experiment: biotinylated peptide with purified DNA-PKcs, streptavidin magnetic beads, 50 mM or 100 mM KCl, silver stain
T2 construct: mature; Used either within crude HeLa nuclear extract or as an essentially homogeneous preparation (about 1 Ku per 840 DNA-PKcs molecules); also called purified DNA-PKcs; homogeneous DNA-PKcs
T2 sequence (P78527 whole entry): as above
Experimental: as §1, with “12–15)” for “12-15)”, “(2 ×10^11” for “(2×10^11”, “(~10^12” for “(˜10^12”, “Z'” for “Z′”

EGGDVDDLLDMI [Peptide E]
proteins retrieved from HeLa nuclear extract by biotinylated peptide ([1]; 50 mM KCl, streptavidin magnetic beads, silver-staining, western blotting): affinity purified predominantly a single protein species of high molecular weight | depletion of DNA-PKcs from HeLa nuclear extract ([1]; additional studies): 60-70% | binding of purified DNA-PKcs by biotinylated peptide [2]: interacts directly with DNA-PKcs

B1: Peptide C (biotin-Ser-Gly-Ser-Gly linked to 12 residues of the Ku80 C-terminus) (peptide)
peptide: Biotin-SGSGPSGDTAAVFEEG
binding result [3]: no binding

B2: Peptide D (biotin-Ser-Gly-Ser-Gly linked to 12 residues of the Ku80 C-terminus) (peptide)
peptide: Biotin-SGSGAVFEEGGDVDDL
binding result [3]: no binding

B3: Peptide A (biotin-Ser-Gly-Ser-Gly linked to 12 residues of the Ku80 C-terminus) (peptide)
peptide: Biotin-SGSGEEAKKFLAPKDK
binding result [3]: no binding

B4: Peptide B (biotin-Ser-Gly-Ser-Gly linked to 12 residues of the Ku80 C-terminus) (peptide)
peptide: Biotin-SGSGLAPKDKPSGDTA
binding result [3]: no binding
